In PMC7984459:

Target: Epac1-camps-PDE4A1
Assay: molecular brightness analysis

For Epac1-camps-PDE4A1, the stoichiometry N was 2.
